Twelve molecules from US20190086411A1 (ROCHE SEQUENCING SOLUTIONS, published 2019) can be followed below.

human prostate specific antigen (PSA) labelled with biotin (human), sequence (P07288 25-261 limits assumed): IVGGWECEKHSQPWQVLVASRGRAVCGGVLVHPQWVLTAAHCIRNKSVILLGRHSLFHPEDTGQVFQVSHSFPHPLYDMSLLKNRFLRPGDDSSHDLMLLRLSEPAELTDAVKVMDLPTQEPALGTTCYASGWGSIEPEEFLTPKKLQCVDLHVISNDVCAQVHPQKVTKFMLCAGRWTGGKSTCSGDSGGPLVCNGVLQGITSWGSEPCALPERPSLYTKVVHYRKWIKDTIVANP

For one assay, the target named is T1, human prostate specific antigen (PSA) labelled with biotin (human, UniProt P07288 25-261, labelled with biotin using EZ-Link NHS-PEG4-biotinylation kit).
T1 construct: Applied in solution at 100 ng/ml to the peptide arrays and detected with Streptavidin Cy5
T1 sequence (P07288 25-261 limits assumed): as above
Kind of assay: Double Substitution/Deletion Array, biotin-PSA, Streptavidin Cy5 detection. How it is done:
(§1) Binding Assay: PSA labelled with biotin using EZ-Link NHS-PEG4-biotinylation kit (Thermo Fisher Sci., Inc. Rockford, Ill.) was incubated in SecureSeal hybridization chamber (Grace Bio-Labs, Bend, Oreg.) at concentration 100 ng/ml in 1×TE binding buffer with 1% alkali soluble casein at 25° C. for 12 hrs. Array was washed 3× with 1×TE buffer and stained with Streptavidin Cy5 in 1× binding buffer with 1% alkali soluble casein at 25 C for 1 hr, and washed 3× with 1×TE buffer and finally with 0.1×TE buffer and scanned using a 2 micrometer MS200 scanner (Roche/Nimblegen, Madison, Wis.).
The top sequences selected from the Extension Array (Table 2, column 3) were used to design Double Substitution/Deletion Arrays as shown in column 4 of Table 2. Single and double substitution scan performed as described in Example 3 were used to optimize PSA binders to achieve highest signal intensity and confirm specificity of each amino acid in motif sequence (Table 2, column 5).
Regarding QSCRSILYGDG, the binding result is listed as “binds”. Same read-out and setting: in the case of GTGFEVYIPGA it was “binds”. The same measure, in the same setting: in the case of ASEWTVYAGNK it was “binds”. The same measure, in the same setting: in the case of GTGWEVHLGKG it was “binds”.

Another assay addresses human prostate specific antigen (PSA) labelled with biotin (human) (UniProt P07288). Kind of assay: 5-mer peptide microarray, biotin-PSA 100 ng/ml, Streptavidin Cy5 detection.
WTVYA (peptide) had a rank by binding signal to PSA (among 405 top sequences) of 3 rank. The same measure, in the same setting: the same measure for FEVYL (peptide): 1 rank. Same read-out and setting: the same measure for WEVHL (peptide): 28 rank.

The molecule RSILY (peptide) displayed a rank in the list of 405 sequences with the highest average signal intensity of 307 rank.

Another assay addresses T1, human prostate specific antigen (PSA) …. Kind of assay: Extension Array (160,000 members, 5 replicates), biotin-PSA, Streptavidin Cy5 detection. How it is done:
as §1
Two dominant F[QET]VY[LI] and W[QET]V[YH][LAV] clusters described above were related by having similar amino acids F or W at position 1 and V at position 3. To find other possible binder motifs we excluded sequences with these features from the 5-mer Array data and performed PEPLIB analysis with top 32 sequences from the remaining dataset as shown in FIG. 11. […] Four sequences, FEVYL (SEQ ID NO: 1), WTVYA (SEQ ID NO: 2), WEVHL (SEQ ID NO: 3), and RSILY (SEQ ID NO: 4), selected from the 5-mer Array were extended by all possible dimers at both N- and C-terminus using all 20 natural amino acids (×) to design Extension Arrays each of them consisting of 160,000 members synthesized in 5 replicates (Table 2). Top twelve sequences for each library selected by signal intensity of PSA binding were used to generate Logo plots shown in FIG. 12. […] For example, FEVYL motif (SEQ ID NO: 1) prefers exclusively P at the C-terminus, WTVYA motif (SEQ ID NO: 2) prefers acidic amino acid either D or E at the N-terminus and G at the C-terminus, whereas RSILY motif (SEQ ID NO: 4) prefers C at the C-terminus, an amino acid that was not present in the 5-mer arrays.
TGWEVHLGK: the binding result is “binds”. Same read-out and setting: in the case of SEWTVYAGN it was “binds”; in that of SCRSILYGQ, “binds”. Consider NGFEVYLPG, for which the binding result is listed as “binds”.
